Experimental data published in the nanobody polyreactivity screen of Harvey et al. (2022).

Assay: yeast display, Sf9 membrane polyspecificity reagent, FACS + sequencing; frameworks hold sequencing errors
Procedure, shortened: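 Synthetic nanobody libraries on Saccharomyces cerevisiae BJ5465 were galactose-induced for 36–48 hours, stained 1 hour at 4 °C with 10% biotinylated, detergent-solubilized Sf9 membrane reagent and enriched on streptavidin microbeads. FACS then separated cells into low and high (top ~1%) gates by anti-HA (expression) and streptavidin (reagent binding) fluorescence. Genes were colony-PCR amplified, MiSeq 2 × 250 sequenced and CDR-length filtered. A clone's polyreactivity label is that of its gate of origin.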

Row | Sequence | polyreactivity (PSR sort gate)
1 | QVHLVESGGGLVQAGGSLRLSCAASGSIIKYYAIGWYRQAPGKERELVAAISWRGGRTYADSVKGRFTISRDNAKNTVYIQMNSLKPEDTAVYYCATSSRYRYWHRYDYWGQGTQVTVSS | high polyreactivity
2 | QVHLVESGGGLVQAGGSLRLSCAASGSILLINAMGWYRQAPGKERELVAAIRTGGSTYYADSVKGRFTISRDNAKNTVSLQMNSLKPEDTAVYYCAVRTGRRWWKFDYWGQGTQVTVSS | low polyreactivity
3 | QVHLVESGGGLVQAGGSLRLSCAASGSILPFNAMGWYRQAPGKDRELVAAIDGSGGDTYYADSVKGRFTISRDNAKNTVYLHMNSLKPEDTAVYYCAAEYYYTSQLAKYHYGYEYWGQGTQVTVSS | high polyreactivity
4 | QVHLVESGGGLVQAGGSLRLSCAASGSILQRNAMGWYRQAPGKERELVASITFSAGRTYYADSVKGRFTISRDNAKNTVYLQMKSLKPEDTAVYYCAADPYSYGARGARGDYWGQGTQVSVSS | low polyreactivity
5 | QVHLVESGGGLVQAGGSLRLSCAASGSISGLYAMGWYRQAPGKETELVAAISFSAGSTYYADSVKGRFTISRDNAKNTVYFQMNSLKPEDTAVYYCAADGQYGGVPNTSEWTFDYWGQGTQVTVSS | low polyreactivity
6 | QVHLVESGGGLVQAGGSLRLSCAASGSISVWYVIVWYRQAPGKERELVAAITRSGGSTFYADSVKGRFTISRDNAKNTVYLQMNSLKPEDTAVYYCAASFRDDFPQRLDYWGQGTQVTVSS | low polyreactivity
7 | QVHLVESGGGLVQAGGSLRLSCAASGSLSVRNVMGWYSQAPGKERELVATIRRSGGSTSYADSVKGRFTISRDNSKNSVYLQMNSLKPEDTAVYYCAAVVYTTYRRYDYWGQGTQVNVSS | low polyreactivity
8 | QVHLVESGGGLVQAGGSLRLSCAASGSNFKGNAMGWYRQAPGKERELVAAINRSGTSTYYADSVKGRFTISRDNAKKTVYLQMNSLKPEDTAVYYCAKKYFGHRFDYWGQGTQVTVSS | high polyreactivity
9 | QVHLVESGGGLVQAGGSLRLSCAASGSTFGYNAMGWYRQAPGKVWELVAVISYSGGSPYYADSVKGRFTLSRDNAKNTVSLQMNSLKPADTAVYYCAKRALTSTRYRVKYDSWGQGTQVTVAS | high polyreactivity
10 | QVHLVESGGGLVQAGGSLRLSCAASGSTFLGYAMGWYRQAPGKERELVAAISWSGGTTYYADSVKGRFTISRDNAKNTVYFQMISQKPEDTAVYYCNVYTRGRYEYWGQGTQVTVSS | low polyreactivity
11 | QVHLVESGGGLVQAGGSLRLSCAASGSTFPVNAMGWYRQAPGKERELVAAIRSSTGRTYYADSVKGRFTISRDNAKNSVYLQMNSLKPEDTAVYNFAAEGDYYDFISPPLDYWGQGTQVTVSS | low polyreactivity
12 | QVHLVESGGGLVQAGGSLRLSCAASGSTFRRYARAWYRQAPGKERELVAAITWRGGSTYYADSVKGRFTISRDNAKNTVYLQMNSLKPEDNAVYYCAADRYPYQYNYWGQGTLVTVSS | high polyreactivity
13 | QVHLVESGGGLVQAGGSLRLSCAASGSTFRVYAMGWYRQAPGKERELVARISITGGTTRYADSVKGRFTISRDNAKNTVYLQMNSLKPEDTAVYYCNADYDWYYWYLYKYPFDYWGQGTQVTVSS | low polyreactivity
14 | QVHLVESGGGLVQAGGSLRLSCAASGSTFSGYAMGWYRQAPGKERELVATITRRGGNTYYADSLKGRFTISRDNAKNTVYLQMNSLKPEDTAVYYCAKDGRVHSPYDYWGQGTQVTVSS | low polyreactivity
15 | QVHLVESGGGLVQAGGSLRLSCAASGSTFVGYAMGWYRQAPGKERELVAAISGGDSTYYADSVKGRFTISRDNAKNTVYLQMNSLKPEDTAVYYCNADYGDTFEYDYWGQGTQVTVSS | low polyreactivity
16 | QVHLVESGGGLVQAGGSLRLSCAASGSTFYTYVMGWYRQAPGKERELVAAISEDDGNTYYADSVKGRFTISRDNAKNTVYLQMNSLKPEDTAVYYCAADWEDDLAYSAYDYWGQGTQVTVSS | high polyreactivity
17 | QVHLVESGGGLVQAGGSLRLSCAASGSTLYTYGMGWYRQAPGKERELVASISWRAARTYYADSVKGRFTISRDNAKNTVYLQMNSLKPEDTAVYYCNADYYIAPYDSWGQGTQVTVSP | low polyreactivity
18 | QVHLVESGGGLVQAGGSLRLSCAASGYIFDIYAMGWYRQAPGKERELVAVITRSGGGTYYADSVKGRFTISRDNAKNTVYLQMNSLKPEDTAVYYCAAESYVYGGSDYDYWGQGTQVTVSS | low polyreactivity
19 | QVHLVESGGGLVQAGGSLRLSCAASGYIFQYYAMGWSRQAPGKERELVAAITGGGSTKYADSVKGRFTISRDNAKNTVYLHMNSLKPEDTAVYYCAASLWYRISKYDYWGLGTQVTVSS | high polyreactivity
20 | QVHLVESGGGLVQAGGSLRLSCAASGYTDYAMGWYRKAPGKERELVATITSGDNTNYADSVKGRFTSSRDNAKNTVYLQMNSLKAEDTAVYYCAAVYGLHYGIDYWGQGTQVNVSS | low polyreactivity
21 | QVHLVESGGGLVQAGGSLRLSCAATGRTFIIYTMAWYRQAPGKESEFVAAITRSGGGTYYADSVKGRFTISRDNAKNTVYLQMNSQKPEDTAVYYCAAVRFYDQAYDYWGQGTQVTVSS | low polyreactivity
22 | QVHLVESGGGLVQAGGSLRLSCAAYGRSFSSNAMGWYGQAPGKERELVAAISSSGAGTYYADSVKGRFTISRDNAKNTVYLQMNRLKPEDTAVYYCAARANSYHSFTSHYDYWGQGTQVTLSS | low polyreactivity

Row | Sequence | polyreactivity (PSR sort gate)
23 | QVHLVESGGGLVQAGGSLRLSCADSGRIFYQYAMGWYRQQPGKESELVARITSGGGTNYADSVKGRFSISRDNAKYTVYLQMNSLKPEDTAVYYCAAGPWYYSYPDYYWGQGTQVTVSS | high polyreactivity
24 | QVHLVESGGGLVQAGGSLRLSCADYGRTFSRYAMGWYRQAPGKERELVATINSRAGITNYPDTVKGRFTISRDNAKNTVYLQMTSLKPEDTAVYYCNRGRPGGPSWYHFDYWGQGSQVTVSS | high polyreactivity
25 | QVHLVESGGGLVQAGGSLRLSCASSGGTFPPNTMGWYRQAPGKEREFVAAITWRGSSTYYADSVKGRFTISRDNAKITFFLQMNSLKPEDSAVDYCAARRAYERMGFWGQGTQVTVSS | high polyreactivity
26 | QVHLVESGGGLVQAGGSLRLSCDASGSTFLSNAMGWYRQAPGKERELVAAITTSGTSTFYADSVKGRFTISRDTAKNTVYLQMNSLKPEDTAVYCAKDYLPYLHFVAPSTGDYDYWGQGTQVTVSS | low polyreactivity
27 | QVHLVESGGGLVQAGGSLRLSCDATGFTFQEYAMGWYRQAPGKERELVAAISTSGDSTYYADSVKGRFTISRDNAKNTVYLQMKSLKPEDNAVYYCATAYEDLDAGVLYDYWGQGTQVTVSS | low polyreactivity
28 | QVHLVESGGGLVQAGGSLRLSCHASGSNFYSYGLGSYRQAPGKERELVAAITSSGGGTYYADSVKGGFTISRDNAKNTVYLQMHSLKPEDTAVYYCNADHFSDNSSTQYDYWGQGTQVTVSS | low polyreactivity
29 | QVHLVESGGGLVQAGGSLRLSCPASGRIFDWYAMGCYRQAPGKEREFVAVIDSSGGTYYADSVKGRFTISRDNAKNTVYLQMNSLKPEDTAVYYCAAEYGWWSFPEYDYWGQGTQVTVSS | low polyreactivity
30 | QVHLVESGGGLVQAGGSLRLSCSASGRTFPKYAMGWYRQAPGKERELVAAINKSGGSRYYADSVKGRFTISRDYAKNTVYLQMNSLKPEDTAVYYCAADWRGWSFFRGDDYWGQGTQVTVSS | high polyreactivity
31 | QVHLVESGGGLVQAGGSLRLSCSASGSIFRLNAMGWYRQAPGKERELVAAITWSDSSTYYADSVKGRFTISRDNAKNTVYLQMNSLKPVDTAVYYCAADPQSYKYDYWGQGTQVTVSS | low polyreactivity
32 | QVHLVESGGGLVQAGGSLRLSSAASGFIFGKNDMGWYRQAPGKERELVAAITIGGSTNYADSVKGRFTISRDNAKNTVYLQLNSLKPEDTAVYYCAADSSSLYNYWGQGTQVTVSS | low polyreactivity
33 | QVHLVESGGGLVQAGGSLRLSSAASGLIFYHYAMGWYRQAPGNERELVAAITKRGGSTYYADSVKGRFTISRDNAKNTVYLQINSLKQEDTAVYYCAADGVRYTQSFEMYWGQGTQVTVSS | high polyreactivity
34 | QVHLVESGGGLVQAGGSLRLSSAASGRIFPWNAMGWYRQAPGKERELVAAISFSAGRTYYADSVKGRFTISRDNAKNTVYLQMNSLKPEDTAVYYCNARIGSRGVWTGIIGYEYWGQGTQVTVSS | low polyreactivity
35 | QVHLVESGGGLVQAGGSLRLSWAASGRNFTRYAMGWYSQAPGKERELVASIRHSGGSTYYADSVKGRFTISRDNAKKTVYLLINSLKPEDTADFYCAARGKKGTRYKYNYWGQRTQVTVSS | high polyreactivity
36 | QVHLVESGGGLVQAGGSLRLTCAASGSIFSYAMGWYRQAPGKESELVAAISSGGGRTYYADSVKGRFTISRDNAKNTVYLQMNRLKPEDTAVYFCAAVGLPQGRYGYWGQGTQVTLSS | high polyreactivity
37 | QVHLVESGGGLVQAGGSLRLTCAASGSIFTYNAMGWYRQAPGKEREFVAAISRCGGNTKYADSVKGRFTISRDNAKNTVYFQMNSLKPEDTAVYYCAVRTIAYSGFRYNYWGQGTQVTVSS | high polyreactivity
38 | QVHLVESGGGLVQAGGSLSLSCDASGYIISSYVMGWYRQAPGKERELVAAISRRGGSTYYADSVKGRFTISRDNAKNTVYLQMNSLIPEDTAVYYCAADGLSGYGSGRYYGMGYCGQGTQVTVSS | high polyreactivity
39 | QVHLVESGGGLVQAGGSRRLSCAASGFTLSYYAMGWYRQAPGKERELVATISRVGTTYADSVKGRFTISRDNAKNTVYLQMNSLKPEDTAVYYCAVRSRWPYYFTRGVREGDYWGQGTQVTVSS | high polyreactivity
40 | QVHLVESGGGLVQAGGTLRLRCAASGSTFVYNDMGWYRQAPGKERELVAAISTSGGSTYYADSVKGRFTISRDNAKNTVYLQMNSLKPEDTAVYFCAVDSYYFGYWAIQWEGDYWGQGTQVTVSS | low polyreactivity
41 | QVHLVESGGGLVQAGGTLRLSCAASGRIFHPNEMRWYRQAPGKEWELVAAISWRGTSTYADSVKGRFTISRDNAKNTVYLQMNSLKPEDTAVYYCVRRYTGLPGWSSYGSYESGYWGQGTQVTVSS | high polyreactivity
42 | QVHLVESGGGLVQAGRSLRLICAASGSTFPTYAMGWYRQAPGKETELVAAISTRGGSTYYADSVKGRFTISRDNAKNTVYLQMNSVKPEDTAVYYCATGKTVGRYHYEYWGQGTQVTVSS | low polyreactivity
43 | QVHLVESGGGLVQAGVSLRLSCAASGLTFGPYAMGWYRQAPGKERELVAAITSGGNTNYADSVKGRFTISRDNAKNTVYLQMNSLKPEDTAVYYCATSYYLAYRSITPYDYWGQGTQVTVSS | low polyreactivity
